# Experimental data reported in US20220177583A1 (University of California, published 2022).
# T1: human CLDN6, endogenously expressed on cancer cell lines (human, UniProt P56747 1-220)
# T1 construct: also called Endogenous CLDN6+; CLDN6 on ARK2, OVCA429, UMUC4 cells
# T1 sequence: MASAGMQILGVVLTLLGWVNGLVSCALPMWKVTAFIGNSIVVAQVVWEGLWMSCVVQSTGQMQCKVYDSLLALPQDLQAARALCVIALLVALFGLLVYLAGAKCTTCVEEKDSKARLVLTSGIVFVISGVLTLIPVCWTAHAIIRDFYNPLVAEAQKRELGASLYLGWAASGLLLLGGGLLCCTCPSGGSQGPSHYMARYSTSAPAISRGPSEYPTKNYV
# T2: mouse CLDN6 fused to GFP, expressed on engineered HEK293T cells (mouse, UniProt Q9Z262 1-219)
# T2 construct: whole, on cells; also called HEK293T-CLDN6-mGFP Artificial CLDN6+ (mouse); murine CLDN6; not shown: GFP tag
# T2 sequence (looked up): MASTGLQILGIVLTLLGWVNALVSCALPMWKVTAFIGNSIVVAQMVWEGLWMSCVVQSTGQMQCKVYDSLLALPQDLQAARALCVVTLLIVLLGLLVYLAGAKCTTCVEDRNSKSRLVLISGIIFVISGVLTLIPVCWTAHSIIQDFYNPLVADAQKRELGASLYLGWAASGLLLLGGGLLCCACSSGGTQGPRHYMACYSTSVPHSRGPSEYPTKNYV
# Key:
# [1] = biological target: T1, human CLDN6, endogenously expressed on …; experiment: FACS, ARK2 cells, 0.3 ug Ab
# [2] = biological target: T1, human CLDN6, endogenously expressed on …; experiment: FACS, ARK2 cells, 1.5 ug Ab
# [3] = biological target: T2, mouse CLDN6 fused to GFP, expressed on …; experiment: FACS, 293T clone with mouse CLDN6
# [4] = biological target: T1, human CLDN6, endogenously expressed on …; experiment: FACS, OVCA429 cells, 1.5 ug Ab
Binder,FACS signal [1],FACS signal [2],FACS signal [3],FACS signal [4]
"AB4-9 (antibody, V domains shown, Humanized; full-length IgG; see note of AB4-8; also called humanized AB 4-9) VH: QVQLVQSGAEVKKPGASVKMSCKASGYTFTSYTMHWIRQAPGQGLEWIGYINPSSTYTHYIKKFKDRATLTADTSTSTAYMELSSLRSEDTAVYYCSRGELGGFAYWGQGTLVTVSS VL: DVVMTQSPLSLPVTLGQPASISCRSSQSLVHSDGNTYLNWYQQRPGQSPRLLIYKVSNRFSGVPDRFSGSGSGTDFTLKISRVEAEDVGVYYCSQSTHVPYTFGQGTKLEIK",3060,7790,1780,
"AB4-10 (antibody, V domains shown, Humanized; full-length IgG; see note of AB4-8; also called humanized AB 4-10) VH: QVQLVQSGAEVKKPGASVKMSCKASGYTFTSYTMHWIRQAPGQGQEWIGYINPSSTYTHYIKKFKDRATLTADTSTSTAYMELSSLRSEDTAVYYCSRGELGGFAYWGQGTLVTVSS VL: DVVMTQSPLSLPVTLGQPASISCRSSQSLVHSDGNTYLNWYQQRPGQSPRLLIYKVSNRFSGVPDRFSGSGSGTDFTLKISRVEAEDVGVYYCSQSTHVPYTFGQGTKLEIK",7210,20200,2650,
"AB4-chim (antibody, V domains shown, Parental antibody prior to humanization ('chim'); also called pre-humanized form of AB4) VH: QVQLQQSGAELARPGASVKMSCKASGYTFTSYTMHWIKQRPGQGQEWIGYINPSSTYTHYIKKFKDKATLTADKSSSTAYMQLRSLTSEDSAVYYCSRGELGGFAYWGQGTLVTVSA VL: DVVMTQTPLSLPVSLGDQASISCRSSQSLVHSDGNTYLNWYLQKPGQSPKLLIYKVSNRFSGVPDRFSGSGSGTDFTLKIRRVEAEDLGVYFCSQSTHVPYTFGGGTKLEIK",19100,38400,,64800
"AB18-3 (antibody, V domains shown, Humanized; full-length IgG; also called humanized AB 18-3) VH: QVQLVQSGAEVKKPGASVKVSCKASGYSFTGYNMNWVRQAPGQGLEWMGNIDPYYGGSTYAQKFQGRVTMTVDTSTSTVYMELSSLRSEDTAVYYCARERSGYVFSAMDYWGQGTLVTVSS VL: not shown",1080,1210,,2700
"AB18-5 (antibody, V domains shown, Humanized; also called humanized AB 18-5) VH: QVQLVQSGAEVKKPGASVKISCKASGYSFTGYNMNWVRQAPGQGLEWIGNIDPYYGGSTYAQKFQGRATLTVDTSTSTAYMELSSLRSEDTAVYYCARERSGYVFSAMDYWGQGTLVTVSS VL: not shown",1310,1330,,4270
"AB9-3 (antibody, V domains shown, Humanized; also called humanized AB 9-3) VH: QVQLVQSGAEVKKPGASVKMSCKASGYRFTDYNMHWVRQAPGQGLEWIGYINPNNGGTNYAQKFQGRATLTVDTSTSTAYMELSSLRSEDTAVYYCARDYLYFFDCWGQGTLLTVSS VL: DIQMTQSPSSLSASVGDRVTITCLASQTIGTWLAWYQQKPGKAPKLLIYAAASLADGVPSRFSGSGSGTDFTFTISSLQPEDFVTYYCQQLYSIPRTFGQGTKLEIK",1140,1470,,1260

# Further lines, results first:
FACS signal [1],FACS signal [2],FACS signal [3],FACS signal [4],Binder
3300,9840,14200,,"AB4-6 (antibody, V domains shown, Humanized; also called humanized AB 4-6) VH: QVQLVQSGAEVKKPGASVKMSCKASGYTFTSYTMHWIRQAPGQGLEWIGYINPSSTYTHYAQKFQGRATLTADKSTSTAYMELSSLRSEDTAVYYCSRGELGGFAYWGQGTLVTVSS VL: DVVMTQSPLSLPVTLGQPASISCRSSQSLVHSDGNTYLNWYQQRPGQSPRLLIYKVSNRFSGVPDRFSGSGSGTDFTLKISRVEAEDVGVYYCSQSTHVPYTFGQGTKLEIK"
3120,7310,4700,,"AB4-8 (antibody, V domains shown, Humanized; full-length IgG; also called humanized AB 4-8) VH: QVQLVQSGAEVKKPGASVKVSCKASGYTFTSYTMHWVRQAPGQGLEWMGYINPSSTYTHYIKKFKDRVTMTADTSTSTVYMELSSLRSEDTAVYYCSRGELGGFAYWGQGTLVTVSS VL: DVVMTQSPLSLPVTLGQPASISCRSSQSLVHSDGNTYLNWYQQRPGQSPRLLIYKVSNRFSGVPDRFSGSGSGTDFTLKISRVEAEDVGVYYCSQSTHVPYTFGQGTKLEIK"
9690,24200,1130,,"AB4-12 (antibody, V domains shown, Humanized; full-length IgG; see note of AB4-8; also called humanized AB 4-12) VH: QVQLVQSGAEVKKPGASVKMSCKASGYTFTSYTMHWIRQAPGQGQEWIGYINPSSTYTHYIKKFKDRATLTADKSTSTAYMELSSLRSEDTAVYYCSRGELGGFAYWGQGTLVTVSS VL: DVVMTQSPLSLPVTLGQPASISCRSSQSLVHSDGNTYLNWYQQRPGQSPRLLIYKVSNRFSGVPDRFSGSGSGTDFTLKISRVEAEDVGVYYCSQSTHVPYTFGQGTKLEIK"
2770,7560,6640,,"AB4-7 (antibody, V domains shown, Humanized; also called humanized AB 4-7) VH: QVQLVQSGAEVKKPGASVKMSCKASGYTFTSYTMHWIRQAPGQGQEWIGYINPSSTYTHYAQKFQGRATLTADKSTSTAYMELSSLRSEDTAVYYCSRGELGGFAYWGQGTLVTVSS VL: DVVMTQSPLSLPVTLGQPASISCRSSQSLVHSDGNTYLNWYQQRPGQSPRLLIYKVSNRFSGVPDRFSGSGSGTDFTLKISRVEAEDVGVYYCSQSTHVPYTFGQGTKLEIK"
6390,9170,1230,,"AB4-11 (antibody, V domains shown, Humanized; full-length IgG; see note of AB4-8; also called humanized AB 4-11) VH: QVQLVQSGAEVKKPGASVKMSCKASGYTFTSYTMHWIRQAPGQGLEWIGYINPSSTYTHYIKKFKDRATLTADKSTSTAYMELSSLRSEDTAVYYCSRGELGGFAYWGQGTLVTVSS VL: DVVMTQSPLSLPVTLGQPASISCRSSQSLVHSDGNTYLNWYQQRPGQSPRLLIYKVSNRFSGVPDRFSGSGSGTDFTLKISRVEAEDVGVYYCSQSTHVPYTFGQGTKLEIK"
53900,97700,101000,,"AB1-11 (antibody, V domains shown, Humanized; also called humanized AB1-11; HU-11) VH: QVQLVQSGAEVKKPGASVKMSCKASGYTFTTYTMHWVRQAPGQGLEWIGFINPSSGYTDYAQKFQGRVTLTADKSTSTVYMELSSLRSEDTAVYYCANGDYYVAYWGQGTLVTVSS VL: DIQLTQSPSSLSASVGDRVTMTCTASSSVSSTYFHWYQQKPGKAPKLWIYSTSNLASGVPSRFSGSGSGTDYTLTISSMQPEDAATYYCHQYHRSPLTFGQGTKLEIK"
1130,1380,,3220,"AB18-4 (antibody, V domains shown, Humanized; also called humanized AB 18-4) VH: QVQLVQSGAEVKKPGASVKVSCKASGYSFTGYNMNWVRQAPGQGLEWMGNIDPYYGGSTYAQKFQGRVTMTVDTSTSTVYMELSSLRSEDTAVYYCARERSGYVFSAMDYWGQGTLVTVSS VL: DIVMTQSPDSLAVSLGERVTMNCKSSQSVLFSSNQKNYLAWYQQKPGQPPKLLIYWASTRESGVPDRFSGSGSGTDFTLTISSVQAEDVAVYYCHQYLSSRTFGQGTKLEIK"
3440,9150,,25500,"AB18-chim (antibody, V domains shown, Parental antibody prior to humanization ('chim'); also called pre-humanized form of AB18) VH: QVQLKQSGPELEKPGASVKISCKASGYSFTGYNMNWVKQSNGKSLEWIGNIDPYYGGSTYNQKFTGKATLTVDKSSSTAYMQLKSLTSEDSAVYYCARERSGYVFSAMDYWGQGTSVTVSS VL: NIMMTQSPSSLAVSAGEKVTMSCKSSQSVLFSSNQKNYLAWYQQKPGQSPRLLIYWASTRESGVPDRFTGSGSGTDFTLTISNVQAEDLAVYYCHQYLSSRTFGAGTKLELK"
